From the supplement of paper PMC11316812
± gives the standard deviation of the averaged measurements.

How the values were obtained:
hTERT-HMEC = assay: percentage of EdU-negative (G0-arrested) nuclei per well, 72 h; higher = more G0 arrest; conditions: reference: sequence is the full UniProt precursor, the tested protein was the secreted form or ectodomain
MCF7 = assay: as above; conditions: reference: sequence is the full UniProt precursor, the tested protein was the secreted form or ectodomain
[1] = protein concentration 0.0257143 µM
[2] = protein concentration 0.257143 µM
[3] = protein concentration 0.0225 µM
[4] = protein concentration 0.0228571 µM
[5] = protein concentration 0.228571 µM
[6] = protein concentration 0.0171429 µM
[7] = protein concentration 0.171429 µM
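Further: secreted proteins added to cultured cells, EdU pulse at the end, nuclei found by Hoechst imaging, EdU status from nuclear versus surrounding ring intensity ratio, PBS as neutral control.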

## MWLRLGPPSLSLSPKPTVGRSLCLTLWFLSLALRASTQAPAPTVNTHFGKLRGARVPLPSEILGPVDQYLGVPYAAPPIGEKRFLPPEPPPSWSGIRNATHFPPVCPQNIHTAVPEVMLPVWFTANLDIVATYIQEPNEDCLYLNVYVPTEDVKRISKECARKPNKKICRKGGSGAKKQGEDLADNDGDEDEDIRDSGAKPVMVYIHGGSYMEGTGNMIDGSILASYGNVIVITLNYRVGVLGFLSTGDQAAKGNYGLLDQIQALRWVSENIAFFGGDPRRITVFGSGIGASCVSLLTLSHHSEGLFQRAIIQSGSALSSWAVNYQPVKYTSLLADKVGCNVLDTVDMVDCLRQKSAKELVEQDIQPARYHVAFGPVIDGDVIPDDPEILMEQGEFLNYDIMLGVNQGEGLKFVEGVVDPEDGVSGTDFDYSVSNFVDNLYGYPEGKDTLRETIKFMYTDWADRDNPETRRKTLVALFTDHQWVEPSVVTADLHARYGSPTYFYAFYHHCQSLMKPAWSDAAHGDEVPYVFGVPMVGPTDLFPCNFSKNDVMLSAVVMTYWTNFAKTGDPNKPVPQDTKFIHTKANRFEEVAWSKYNPRDQLYLHIGLKPRVRDHYRATKVAFWKHLVPHLYNLHDMFHYTSTTTKVPPPDTTHSSHITRRPNGKTWSTKRPAISPAYSNENAQGSWNGDQDAGPLLVENPRDYSTELSVTIAVGASLLFLNVLAFAALYYRKDKRRQEPLRQPSPQRGAGAPELGAAPEEELAALQLGPTHHECEAGPPHDTLRLTALPDYTLTLRRSPDDIPLMTPNTITMIPNSLVGLQTLHPYNTFAAGFNSTGLPHSHSTTRV [Q9NZ94]
hTERT-HMEC; [1]
  percentage of EdU-negative: 5.8 ± 1.5%
hTERT-HMEC; [2]
  percentage of EdU-negative: 10.2 ± 2.3%
MCF7; [1]
  percentage of EdU-negative: 24.2 ± 1.1%
MCF7; [2]
  percentage of EdU-negative: 24.1 ± 1.1%

## MQLTRCCFVFLVQGSLYLVICGQDDGPPGSEDPERDDHEGQPRPRVPRKRGHISPKSRPMANSTLLGLLAPPGEAWGILGQPPNRPNHSPPPSAKVKKIFGWGDFYSNIKTVALNLLVTGKIVDHGNGTFSVHFQHNATGQGNISISLVPPSKAVEFHQEQQIFIEAKASKIFNCRMEWEKVERGRRTSLCTHDPAKICSRDHAQSSATWSCSQPFKVVCVYIAFYSTDYRLVQKVCPDYNYHSDTPYYPSG
hTERT-HMEC; [3]
  percentage of EdU-negative: 6.5 ± 0.97%
hTERT-HMEC; protein concentration 0.225 µM
  percentage of EdU-negative: 6.09 ± 1.7%
MCF7; [3]
  percentage of EdU-negative: 28.1 ± 0.43%
MCF7; protein concentration 0.225 µM
  percentage of EdU-negative: 31.8 ± 2.5%

## MKLVFLVLLFLGALGLCLAGRRRSVQWCAVSQPEATKCFQWQRNMRKVRGPPVSCIKRDSPIQCIQAIAENRADAVTLDGGFIYEAGLAPYKLRPVAAEVYGTERQPRTHYYAVAVVKKGGSFQLNELQGLKSCHTGLRRTAGWNVPIGTLRPFLNWTGPPEPIEAAVARFFSASCVPGADKGQFPNLCRLCAGTGENKCAFSSQEPYFSYSGAFKCLRDGAGDVAFIRESTVFEDLSDEAERDEYELLCPDNTRKPVDKFKDCHLARVPSHAVVARSVNGKEDAIWNLLRQAQEKFGKDKSPKFQLFGSPSGQKDLLFKDSAIGFSRVPPRIDSGLYLGSGYFTAIQNLRKSEEEVAARRARVVWCAVGEQELRKCNQWSGLSEGSVTCSSASTTEDCIALVLKGEADAMSLDGGYVYTAGKCGLVPVLAENYKSQQSSDPDPNCVDRPVEGYLAVAVVRRSDTSLTWNSVKGKKSCHTAVDRTAGWNIPMGLLFNQTGSCKFDEYFSQSCAPGSDPRSNLCALCIGDEQGENKCVPNSNERYYGYTGAFRCLAENAGDVAFVKDVTVLQNTDGNNNEAWAKDLKLADFALLCLDGKRKPVTEARSCHLAMAPNHAVVSRMDKVERLKQVLLHQQAKFGRNGSDCPDKFCLFQSETKNLLFNDNTECLARLHGKTTYEKYLGPQYVAGITNLKKCSTSPLLEACEFLRK [E7EQB2]
hTERT-HMEC; protein concentration 0.01 µM
  percentage of EdU-negative: 5.27 ± 0.58%
hTERT-HMEC; protein concentration 0.1 µM
  percentage of EdU-negative: 5.87 ± 0.35%
MCF7; protein concentration 0.01 µM
  percentage of EdU-negative: 22.5 ± 0.39%
MCF7; protein concentration 0.1 µM
  percentage of EdU-negative: 24.6 ± 0.5%

## MRERPRLGEDSSLISLFLQVVAFLAMVMGTHTYSHWPSCCPSKGQDTSEELLRWSTVPVPPLEPARPNRHPESCRASEDGPLNSRAISPWRYELDRDLNRLPQDLYHARCLCPHCVSLQTGSHMDPRGNSELLYHNQTVFYRRPCHGEKGTHKGYCLERRLYRVSLACVCVRPRVMG [Q9H293]
hTERT-HMEC; [4]
  percentage of EdU-negative: 5.07 ± 0.33%
hTERT-HMEC; [5]
  percentage of EdU-negative: 5.25 ± 1%
MCF7; [4]
  percentage of EdU-negative: 24 ± 0.49%
MCF7; [5]
  percentage of EdU-negative: 36.9 ± 1.7%

## MLLFLLSALVLLTQPLGYLEAEMKTYSHRTMPSACTLVMCSSVESGLPGRDGRDGREGPRGEKGDPGLPGAAGQAGMPGQAGPVGPKGDNGSVGEPGPKGDTGPSGPPGPPGVPGPAGREGPLGKQGNIGPQGKPGPKGEAGPKGEVGAPGMQGSAGARGLAGPKGERGVPGERGVPGNTGAAGSAGAMGPQGSPGARGPPGLKGDKGIPGDKGAKGESGLPDVASLRQQVEALQGQVQHLQAAFSQYKKVELFPNGQSVGEKIFKTAGFVKPFTEAQLLCTQAGGQLASPRSAAENAALQQLVVAKNEAAFLSMTDSKTEGKFTYPTGESLVYSNWAPGEPNDDGGSEDCVEIFTNGKWNDRACGEKRLVVCEF
hTERT-HMEC; [6]
  percentage of EdU-negative: 4.51 ± 0.51%
hTERT-HMEC; [7]
  percentage of EdU-negative: 5.78 ± 0.29%
MCF7; [6]
  percentage of EdU-negative: 23.4 ± 1.8%
MCF7; [7]
  percentage of EdU-negative: 25.14 ± 0.067%

## MERRAWSLQCTAFVLFCAWCALNSAKAKRQFVNEWAAEIPGGPEAASAIAEELGYDLLGQIGSLENHYLFKHKNHPRRSRRSAFHITKRLSDDDRVIWAEQQYEKERSKRSALRDSALNLFNDPMWNQQWYLQDTRMTAALPKLDLHVIPVWQKGITGKGVVITVLDDGLEWNHTDIYANYDPEASYDFNDNDHDPFPRYDPTNENKHGTRCAGEIAMQANNHKCGVGVAYNSKVGGIRMLDGIVTDAIEASSIGFNPGHVDIYSASWGPNDDGKTVEGPGRLAQKAFEYGVKQGRQGKGSIFVWASGNGGRQGDNCDCDGYTDSIYTISISSASQQGLSPWYAEKCSSTLATSYSSGDYTDQRITSADLHNDCTETHTGTSASAPLAAGIFALALEANPNLTWRDMQHLVVWTSEYDPLANNPGWKKNGAGLMVNSRFGFGLLNAKALVDLADPRTWRSVPEKKECVVKDNDFEPRALKANGEVIIEIPTRACEGQENAIKSLEHVQFEATIEYSRRGDLHVTLTSAAGTSTVLLAERERDTSPNGFKNWDFMSVHTWGENPIGTWTLRITDMSGRIQNEGRIVNWKLILHGTSSQPEHMKQPRVYTSYNTVQNDRRGVEKMVDPGEEQPTQENPKENTLVSKSPSSSSVGGRRDELEEGAPSQAMLRLLQSAFSKNSPPKQSPKKSPSAKLNIPYENFYEALEKLNKPSQLKDSEDSLYNDYVDVFYNTKPYKHRDDRLLQALVDILNEEN
hTERT-HMEC; protein concentration 0.009 µM
  percentage of EdU-negative: 4.928 ± 0.013%
hTERT-HMEC; protein concentration 0.09 µM
  percentage of EdU-negative: 7.51 ± 0.97%
MCF7; protein concentration 0.009 µM
  percentage of EdU-negative: 25.7 ± 4%
MCF7; protein concentration 0.09 µM
  percentage of EdU-negative: 27.832 ± 0.026%
